The text below walks through data of article PMC9371972, “Cryo-EM structure of the human CST–Polα/primase complex in a recruitment state” (Nature Structural & Molecular Biology, 2022).

First the molecules themselves.
B2: CTC1 (subunit of the CST complex) (natural protein, human)
chain: MAAGRAQVPSSEQAWLEDAQVFIQKTLCPAVKEPNVQLTPLVIDCVKTVWLSQGRNQGSTLPLSYSFVSVQDLKTHQRLPCCSHLSWSSSAYQAWAQEAGPNGNPLPREQLLLLGTLTDLSADLEQECRNGSLYVRDNTGVLSCELIDLDLSWLGHLFLFPRWSYLPPARWNSSGEGHLELWDAPVPVFPLTISPGPVTPIPVLYPESASCLLRLRNKLRGVQRNLAGSLVRLSALVKSKQKAYFILSLGRSHPAVTHVSIIVQVPAQLVWHRALRPGTAYVLTELRVSKIRGQRQHVWMTSQSSRLLLLKPECVQELELELEGPLLEADPKPLPMPSNSEDKKDPESLVRYSRLLSYSGAVTGVLNEPAGLYELDGQLGLCLAYQQFRGLRRVMRPGVCLQLQDVHLLQSVGGGTRRPVLAPCLRGAVLLQSFSRQKPGAHSSRQAYGASLYEQLVWERQLGLPLYLWATKALEELACKLCPHVLRHHQFLQHSSPGSPSLGLQLLAPTLDLLAPPGSPVRNAHNEILEEPHHCPLQKYTRLQTPSSFPTLATLKEEGQRKAWASFDPKALLPLPEASYLPSCQLNRRLAWSWLCLLPSAFCPAQVLLGVLVASSHKGCLQLRDQSGSLPCLLLAKHSQPLSDPRLIGCLVRAERFQLIVERDVRSSFPSWKELSMPGFIQKQQARVYVQFFLADALILPVPRPCLHSATPSTPQTDPTGPEGPHLGQSRLFLLCHKEALMKRNFCVPPGASPEVPKPALSFYVLGSWLGGTQRKEGTGWGLPEPQGNDDNDQKVHLIFFGSSVRWFEFLHPGQVYRLIAPGPATPMLFEKDGSSCISRRPLELAGCASCLTVQDNWTLELESSQDIQDVLDANKSLPESSLTDLLSDNFTDSLVSFSAEILSRTLCEPLVASLWMKLGNTGAMRRCVKLTVALETAECEFPPHLDVYIEDPHLPPSLGLLPGARVHFSQLEKRVSRSHNVYCCFRSSTYVQVLSFPPETTISIPLPHIYLAELLQGGQSPFQATASCHIVSVFSLQLFWVCAYCTSICRQGKCTRLGSTCPTQTAISQAIIRLLVEDGTAEAVVTCRNHHVAAALGLCPREWASLLDFVQVPGRVVLQFAGPGAQLESSARVDEPMTMFLWTLCTSPSVLRPIVLSFELERKPSKIVPLEPPRLQRFQCGELPFLTHVNPRLRLSCLSIRESEYSSSLGILASSC
notes: human CTC1; the CTC1 chain of m1; Always present with STN1 and TEN1; written alone for subunit-to-subunit contacts; source: Tni insect cells (baculovirus), purified as part of CST; not shown: His6, N-terminal, cleaved; MBP, N-terminal, cleaved

Holding throughout (conditions): both partners purified
Assay [1] deals with B2. As to the kind of experiment: cross-linking; CX-MS of the SEC-reconstituted CST–POLA1^N complex with BS3 (0.35–0.75 mM, 25 °C, 30 min), 1 mg/mL.
Assay [2] deals with T1, CTC1–STN1–TEN1 (CST) complex (human, UniProt Q2NKJ3 1-1217; Q9H668 1-368; Q86WV5 1-123).
T1 construct: human CTC1; human STN1; human TEN1; Expressed from pBIG1a(His6-MBP-PreSc-CTC1/STN1/TEN1); tag removed with rhinovirus 3C protease; source: Tni insect cells (baculovirus), purified (Ni-NTA, 3C protease cleavage, heparin, SEC); not shown: His6, N-terminal, cleaved; MBP, N-terminal, cleaved; copies: + +
Nature of the assay: SEC; purified proteins mixed (PP^FL and CST equimolar; CST with twofold molar excess of His6-MBP-POLA1^N), 1 h at 4 °C, HiLoad Superdex 200 16/600 PG, 20 mM HEPES pH 7.5, 150 mM NaCl, 0.5 mM TCEP, 5% glycerol.

Assay [3] addresses T2, POLA1^FL (subunit of PP^FL) (human, UniProt P09884 1-1462).
T2 construct: the POLA1 chain of m3; Always present with POLA2, PRIM1 and PRIM2; written alone for subunit-to-subunit cross-links; source: Tni insect cells (baculovirus), purified as part of PP^FL
T2 sequence (looked up): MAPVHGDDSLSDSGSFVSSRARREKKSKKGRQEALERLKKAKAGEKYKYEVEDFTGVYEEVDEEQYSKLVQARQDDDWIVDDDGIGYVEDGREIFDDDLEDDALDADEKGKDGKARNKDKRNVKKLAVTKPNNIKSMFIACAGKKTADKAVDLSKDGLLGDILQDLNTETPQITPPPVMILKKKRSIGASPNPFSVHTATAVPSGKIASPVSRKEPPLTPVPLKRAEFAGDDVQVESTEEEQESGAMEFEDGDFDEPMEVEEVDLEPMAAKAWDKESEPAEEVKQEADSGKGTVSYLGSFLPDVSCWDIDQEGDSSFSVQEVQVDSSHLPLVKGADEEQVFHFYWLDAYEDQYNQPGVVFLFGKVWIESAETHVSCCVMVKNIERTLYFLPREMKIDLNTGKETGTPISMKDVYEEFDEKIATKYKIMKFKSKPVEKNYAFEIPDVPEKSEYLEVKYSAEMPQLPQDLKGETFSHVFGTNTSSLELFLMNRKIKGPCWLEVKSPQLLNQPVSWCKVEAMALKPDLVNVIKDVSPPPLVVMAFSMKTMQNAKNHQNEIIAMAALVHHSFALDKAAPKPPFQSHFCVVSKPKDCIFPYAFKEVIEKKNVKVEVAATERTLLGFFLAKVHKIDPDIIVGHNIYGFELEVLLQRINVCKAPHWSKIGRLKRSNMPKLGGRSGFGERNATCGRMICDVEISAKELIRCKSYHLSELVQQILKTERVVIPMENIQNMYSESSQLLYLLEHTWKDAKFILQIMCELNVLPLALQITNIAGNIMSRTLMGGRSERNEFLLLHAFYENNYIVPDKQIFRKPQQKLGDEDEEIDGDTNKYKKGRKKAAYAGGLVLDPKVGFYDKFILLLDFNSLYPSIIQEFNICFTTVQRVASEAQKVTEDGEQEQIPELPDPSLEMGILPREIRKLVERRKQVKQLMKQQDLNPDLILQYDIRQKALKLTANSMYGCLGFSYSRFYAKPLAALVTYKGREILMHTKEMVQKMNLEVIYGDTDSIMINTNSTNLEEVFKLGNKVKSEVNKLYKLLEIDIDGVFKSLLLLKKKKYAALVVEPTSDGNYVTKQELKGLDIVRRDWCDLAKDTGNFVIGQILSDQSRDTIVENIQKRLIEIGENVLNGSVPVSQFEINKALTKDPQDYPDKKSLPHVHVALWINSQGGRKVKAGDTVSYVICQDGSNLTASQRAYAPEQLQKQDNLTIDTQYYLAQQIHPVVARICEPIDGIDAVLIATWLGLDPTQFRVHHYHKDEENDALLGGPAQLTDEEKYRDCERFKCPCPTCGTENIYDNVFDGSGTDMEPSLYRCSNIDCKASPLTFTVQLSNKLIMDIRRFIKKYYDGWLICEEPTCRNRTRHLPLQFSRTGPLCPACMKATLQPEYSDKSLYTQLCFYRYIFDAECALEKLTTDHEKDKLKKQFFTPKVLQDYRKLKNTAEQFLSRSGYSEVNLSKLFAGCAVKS
As to the kind of experiment: cross-linking; CX-MS of the SEC-reconstituted CST–PP^FL complex with DSS (0.35–0.75 mM, 25 °C, 30 min), 1 mg/mL.

T1 sequence (Q9H668 whole entry, chain 2 of 2): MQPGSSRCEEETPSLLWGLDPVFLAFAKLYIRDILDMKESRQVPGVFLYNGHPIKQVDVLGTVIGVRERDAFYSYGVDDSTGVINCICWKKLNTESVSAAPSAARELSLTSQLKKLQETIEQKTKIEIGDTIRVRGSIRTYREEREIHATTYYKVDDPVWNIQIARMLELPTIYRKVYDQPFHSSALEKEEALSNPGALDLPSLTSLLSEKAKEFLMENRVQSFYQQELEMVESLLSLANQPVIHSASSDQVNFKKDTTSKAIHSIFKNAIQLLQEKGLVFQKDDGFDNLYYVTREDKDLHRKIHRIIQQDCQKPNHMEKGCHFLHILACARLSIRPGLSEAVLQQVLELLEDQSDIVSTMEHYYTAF
T1 sequence (Q86WV5 whole entry, chain 3 of 2): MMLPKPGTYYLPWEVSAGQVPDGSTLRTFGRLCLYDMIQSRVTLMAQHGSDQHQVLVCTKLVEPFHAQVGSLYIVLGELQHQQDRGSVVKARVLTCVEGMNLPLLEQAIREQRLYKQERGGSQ

B1: His6-MBP-PreSc-POLA1^N (domain or fragment, human, UniProt P09884 1-339, looked up)
chain: MAPVHGDDSLSDSGSFVSSRARREKKSKKGRQEALERLKKAKAGEKYKYEVEDFTGVYEEVDEEQYSKLVQARQDDDWIVDDDGIGYVEDGREIFDDDLEDDALDADEKGKDGKARNKDKRNVKKLAVTKPNNIKSMFIACAGKKTADKAVDLSKDGLLGDILQDLNTETPQITPPPVMILKKKRSIGASPNPFSVHTATAVPSGKIASPVSRKEPPLTPVPLKRAEFAGDDVQVESTEEEQESGAMEFEDGDFDEPMEVEEVDLEPMAAKAWDKESEPAEEVKQEADSGKGTVSYLGSFLPDVSCWDIDQEGDSSFSVQEVQVDSSHLPLVKGADEEQ
notes: human POLA1 N-terminal region, POLA1^N, 1–339 aa in the methods (1–335 aa in the results); MBP served as a mass label in negative-stain EM; also called MBP-POLA1^N; MBP-tagged POLA1^N; source: Tni insect cells (baculovirus), purified (Ni-NTA, SEC); not shown: His6, N-terminal, kept; MBP, N-terminal, kept
As to B1, the binding result in assay [1] and in assay [2] was “binds” each time. On to B2, for which the binding result in assay [3] is “binds”.
